Source: publication PMC9342900, “Cryo-EM structures of the Synechocystis sp. PCC 6803 cytochrome b6f complex with and without the regulatory PetP subunit” (Biochemical Journal, 2022)

B2: N-terminally hexa-Histidine (His)-tagged PetP (natural protein, Synechocystis sp. PCC 6803)
chain: MTIEIGQKVKVYRLRDRVSPDVVGKLGKVGVVKDFKMTDGSGIGAVVSFDDRTATWFFEDELKAI
notes: PetP, Synechocystis sp; PCC 6803, gene petP (ssr2998), codon optimized for E. coli, cloned into the NdeI and XhoI sites of pET28a(+); About 10 kDa protein; The vector pET28a(+) adds further residues between the His tag and the NdeI site; also called His-PetP; His6-tagged PetP; source: E. coli BL21(DE3), purified (HisTrap IMAC, PD-10 desalting); not shown: His6, N-terminal, kept

Columns and labels:
[1] = molecular target: T1, Synechocystis cytb6f-PetP complex (Rieske ISP subunit) (Synechocystis sp. PCC 6803, UniProt P26290); experiment: cryo-EM structure, […] Å; type: binding; settings: native co-purified
T1 construct: gene petC1; same complex as P1; with Cytochrome b6; Cytochrome b6-f complex subunit 4; Cytochrome f; Cytochrome b6-f complex subunit 5; Cytochrome b6-f complex subunit 6; Cytochrome b6-f complex subunit 7; Cytochrome b6-f complex subunit 8; Cytochrome b6f regulatory subunit PetP
T1 sequence (P26290 2-180): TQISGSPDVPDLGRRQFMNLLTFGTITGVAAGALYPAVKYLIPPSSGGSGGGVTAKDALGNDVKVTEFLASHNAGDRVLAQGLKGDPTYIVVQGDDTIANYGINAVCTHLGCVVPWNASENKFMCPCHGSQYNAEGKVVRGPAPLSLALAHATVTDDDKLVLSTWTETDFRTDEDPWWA

[2] = molecular target: T2, Synechocystis cytb6f-PetP complex (cytochrome b6 / subunit IV core) (Synechocystis sp. PCC 6803, UniProt P27589+Q57038); experiment: cryo-EM structure, […] Å; type: binding; settings: Qn site, one PQ per monomer near heme cn; native co-purified; with PetP
T2 construct: gene petB; native dimeric complex from Synechocystis thylakoids in GDN, cytochrome f with C-terminal Ser-Ala-Strep-tag II; reconstituted with His6-PetP from E. coli; with Cytochrome f; Cytochrome b6-f complex iron-sulfur subunit; Cytochrome b6-f complex subunit 5; Cytochrome b6-f complex subunit 6; Cytochrome b6-f complex subunit 7; Cytochrome b6-f complex subunit 8; Cytochrome b6f regulatory subunit PetP

[3] = molecular target: T3, Synechocystis cytb6f complex (carotenoid site) (Synechocystis sp. PCC 6803, UniProt P0DXY4+P74149+P74810+Q57038); experiment: cryo-EM structure; HPLC of extracted pigments; type: binding; settings: native co-purified; 9-cis configuration suggested
T3 construct: gene petB; same complex as P1; with Cytochrome b6-f complex subunit 4; Cytochrome f; Cytochrome b6-f complex iron-sulfur subunit; Cytochrome b6-f complex subunit 8; Cytochrome b6f regulatory subunit PetP

[4] = molecular target: Synechocystis sp. PCC 6803 cytochrome b6f complex with C-terminally StrepII-tagged PetA, purified dimer (Synechocystis sp. PCC 6803) (UniProt P26287); experiment: cryo-EM structure; cytb6f without PetP, 17 uM, in GDN; 3.15 A
[5] = molecular target: Synechocystis sp. PCC 6803 cytochrome b6f complex with C-terminally StrepII-tagged PetA, purified dimer (Synechocystis sp. PCC 6803) (UniProt P26287); experiment: native gel or EMSA; BN-PAGE on NativePAGE 3-12% Bis-Tris gels, Coomassie stain; purified cytb6f and cytb6f-PetP; dimer against monomer of the complex
[6] = molecular target: Synechocystis sp. PCC 6803 cytochrome b6f complex with C-terminally StrepII-tagged PetA, purified dimer (Synechocystis sp. PCC 6803) (UniProt P26287); experiment: cryo-EM structure; reconstituted cytb6f-PetP complex, 20 uM, in buffer D with GDN; 2.80 A
[7] = molecular target: B2; experiment: as above; settings: both partners purified
[8] = molecular target: T4, cytochrome b6 subunit of the Synechocystis cytb6f complex (Synechocystis sp. PCC 6803, UniProt Q57038 1-222); experiment: as above; settings: both partners purified
T4 construct: cytochrome b6, Synechocystis sp; PCC 6803, endogenous subunit of cytb6f; Stood in the structure as a subunit of m2; source: Synechocystis PetA-StrepII strain, purified as part of cytb6f (StrepTrap HP, SEC)
T4 sequence: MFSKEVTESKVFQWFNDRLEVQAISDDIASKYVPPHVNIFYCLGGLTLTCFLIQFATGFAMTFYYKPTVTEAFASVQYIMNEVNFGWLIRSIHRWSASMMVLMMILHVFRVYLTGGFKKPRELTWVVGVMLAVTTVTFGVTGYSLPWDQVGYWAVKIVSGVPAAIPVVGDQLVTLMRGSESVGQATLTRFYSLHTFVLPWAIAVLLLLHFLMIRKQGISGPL

[9] = molecular target: T5, subunit IV of the Synechocystis cytb6f complex (Synechocystis sp. PCC 6803, UniProt P27589 1-160); experiment: as above; settings: both partners purified
T5 construct: subunit IV, Synechocystis sp; PCC 6803, endogenous subunit of cytb6f; Stood in the structure as a subunit of m2; also called subIV; source: Synechocystis PetA-StrepII strain, purified as part of cytb6f (StrepTrap HP, SEC)
T5 sequence: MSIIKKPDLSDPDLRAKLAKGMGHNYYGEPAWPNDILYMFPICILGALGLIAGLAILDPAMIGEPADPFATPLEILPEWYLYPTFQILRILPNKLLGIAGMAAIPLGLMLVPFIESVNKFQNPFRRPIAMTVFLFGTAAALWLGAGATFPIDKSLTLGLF

## [S]1[Fe][S][Fe]1 [2Fe-2S cluster]
[1]
  cryo-EM structure, 2.80 Å: the 2Fe-2S cluster (orange Fe and yellow S)

## CC(C)=CCC/C(C)=C/CC/C(C)=C/CC/C(C)=C/CC/C(C)=C/CC/C(C)=C/CC/C(C)=C/CC/C(C)=C/CC/C(C)=C/CC1=CC(=O)C(C)=C(C)C1=O [PQ, plastoquinone]
[2]
  cryo-EM structure, 2.80 Å: resolves two native PQ molecules, one bound at each Qn site within the dimer

## CC1=C(/C=C/C(C)=C/C=C/C(C)=C/C=C/C=C(C)/C=C/C=C(C)/C=C/C2=C(C)C(=O)CCC2(C)C)C(C)(C)CCC1 [echinenone]
[3]
  cryo-EM structure; HPLC of extracted pigments: clear density for the ketone group on the end ring of echinenone

## Synechocystis sp. PCC 6803 cytochrome b6f complex with C-terminally StrepII-tagged PetA, purified dimer (from UniProt P26287 45-328; Q57038 1-222; P27589 1-160; P74149 1-38; P74810 1-36; P72717 1-29)
[4]
  stoichiometry N: 2
[5]
  stoichiometry N: 2
[6]
  stoichiometry N: 2

B1: PetG subunit of the Synechocystis cytb6f complex (natural protein, Synechocystis sp. PCC 6803)
chain: MIEPLLLGIVLGLIPVTLAGLFVAAYLQYKRGNQFNLD
notes: PetG, Synechocystis sp; PCC 6803, endogenous subunit of cytb6f; Stood in the structure as a subunit of m2; source: Synechocystis PetA-StrepII strain, purified as part of cytb6f (StrepTrap HP, SEC)
[7]
  binding result: binds

## B2
[8]
  binding result: binds
[9]
  binding result: binds
